The target of this assay is SARS-CoV-2 spike RBD (Wuhan-Hu-1) (Severe acute respiratory syndrome …, UniProt P0DTC2). Nature of the assay: SPR. (In general: Surface plasmon resonance follows binding to a sensor surface in real time, without labels.)

Where a chain is given by its changes, count along the chain named.

The term Kd denotes the equilibrium constant for the complex coming apart. Low values mean tighter binding, high ones weaker binding.

B1: COVIC-152 (antibody, V domains shown)
VH: QVQLQESGPGLVKPSQTLSLTCTVSGGSISSYGYYWSWIRQHPGKGLEWIGYIYYSGSTYYNPSLKSRVTMSVDTSKNQLSLRLNSVSAADTAVYYCARDFGGNSNYFDYWGQGTLVTVSS
VL: AIQLTQSPSSLSASVGDRVTITCRASQGISSALAWYQQKPGKAPNLLIYDASSLESGVPSRFSGSGSGTDFTLTISSLQPEDFATYYCQQFNSSPLTFGGGTKVEIKR
For B1, binding was put at a Kd of 3.02 nM.

B2: COVIC-337 (antibody, V domains shown)
VH: EVQLVQSGAEVKKPGSSVKVSCKASGGTFSMHTIRWVRQAPGQGLEWMGRIIPMLGIVNYAQKFQGRVTISADKSTSTAYMELSSLTSEDTAMYYCAKGSHDVFDIWGQGTMVTVSS
VL: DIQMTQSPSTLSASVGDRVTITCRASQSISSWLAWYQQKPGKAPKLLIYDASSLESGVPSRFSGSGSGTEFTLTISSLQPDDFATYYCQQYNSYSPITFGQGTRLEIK
Molecule B2 returned a Kd of 3.02 nM.

B3: COVIC-123 (antibody)
chain: QVQLQESGGGLVQAGGSLRLSCAASGRTFSEYAMGWFRQAPGKEREFVATISWSGGSTYYTDSVKGRFTISRDNAKNTVYLQMNSLKPDDTAVYYCAAAGLGTVVSEWDYDYDYWGQGTQVTVSSGGSGGSQVQLQESGGGLVQAGGSLRLSCAASGRTFSEYAMGWFRQAPGKEREFVATISWSGGSTYYTDSVKGRFTISRDNAKNTVYLQMNSLKPDDTAVYYCAAAGLGTVVSEWDYDYDYWGQGTQVTVSSGGGGSGGGGSEPKSCDKTHTCPPCPAPELLGGKKKPLDGEYFTLQIRGRERFEMFRELNEALELKDAQAGKEPGGGGGSGGGGSQVQLQESGGGLVQAGGSLRLSCAASGRTFSEYAMGWFRQAPGKEREFVATISWSGGSTYYTDSVKGRFTISRDNAKNTVYLQMNSLKPDDTAVYYCAAAGLGTVVSEWDYDYDYWGQGTQVTVSS
In the case of B3, the dissociation constant Kd was found to be 206 nM.

B4: COVIC-23 (antibody, V domains shown)
VH: EVQLLESGGGLVQPGGSLRLSCAASGFTFSNYPMNWVRQAPGKGLEWVSTISGSGGNTFYADSVKGRFTISRDNSKNTLYLQMNSLRAEDTAVYYCVRHDEYSFDYWGQGTLVTVSS
Molecule B4 yielded an equilibrium dissociation constant (Kd) of 71.3 nM.

B5: COVIC-159 (antibody, V domains shown)
VH: EVQLVESGGGLIQPGGSLRLSCAASGFTVSSNYMNWVRQAPGKGLEWVSVIYSGGSTYYADSVKGRFTISRDNSKNTLFLQMNSLRAEDSAVYYCARDLGPYGVDVWGQGTTVTVSS
VL: DIQLTQSPSFLSASVGDRVTITCWASQGISSYLAWYQQKPGKAPKLLIYAASTLQSGVPSRFSGSGSGTEFTLTISSLQPEDFATYYCQELNSYPLTFGQGTRLEIKR
Molecule B5 displayed a Kd of 24.9 nM.

B6: COVIC-263 (antibody, V domains shown)
VH: QVQLQESGPRLVKPSETLSLTCTVSGGSISGSNYFWGWIRQPPGKGLEWIGTIYYGGSTYYNPSLKSRVTISVDTSENQFSLKLSSVTAADTAVYYCANLAWLRGYFDYWGQGTLVTVSS
VL: NFMLTQPHSVSESPGKTVTISCTRSSGSIASNYVQWYQQRPGSAPTTVIYEDNQRPSGVPDRFSGSIDSSSNSVSLTISGLKTEDEADYYCQSYDSSNWVFGGGTKLTVLG
As to B6, binding was characterised by a dissociation constant (Kd) of 0.0861 nM.

B7: COVIC-61 (antibody)
chain: QVQLQESGGGLVQAGGSLRLSCAASGRTFSEYAMGWFRQAPGKEREFVATISWSGGSTYYTDSVKGRFTISRDNAKNTVYLQMNSLKPDDTAVYYCAAAGLGTVVSEWDYDYDYWGQGTQVTVSSGGSGGSQVQLQESGGGLVQAGGSLRLSCAASGRTFSEYAMGWFRQAPGKEREFVATISWSGGSTYYTDSVKGRFTISRDNAKNTVYLQMNSLKPDDTAVYYCAAAGLGTVVSEWDYDYDYWGQGTQVTVSSGGGGSGGGGSKKKPLDGEYFTLQIRGRERFEMFRELNEALELKDAQAGKEPG
B7 gave a Kd of 195 nM.

B8: COVIC-35 (antibody, V domains shown)
VH: EVQLVESGGGVVQPGRSLRLSCAASGFTFSSYAMHWVRQAPGKGLEWVAVISYDGSYKYYADSVKGRFTISRDNSKNTLYLQMNSLTAEDTAVYYCAREGSRQWLVIYFDYWGQGTLVTVSS
VL: AIRMTQSPSSLSASVGDRVTITCRASQSISSYLNWYQQKPGKAPKLLIYAASSLQSGVPSRFSGSGSGTDFTLTISSLQPEDFATYYCQQSYTTFIYTFGQGTKLEIK
The molecule B8 came in with a Kd of 2.81 nM.

B9: COVIC-119 (antibody)
chain 1: QVQLQESGGGLVQAGGSLRLSCAASGRTFSEYAMGWFRQAPGKEREFVATISWSGGSTYYTDSVKGRFTISRDNAKNTVYLQMNSLKPDDTAVYYCAAAGLGTVVSEWDYDYDYWGQGTQVTVSSGGSGGSQVQLQESGGGLVQAGGSLRLSCAASGRTFSEYAMGWFRQAPGKEREFVATISWSGGSTYYTDSVKGRFTISRDNAKNTVYLQMNSLKPDDTAVYYCAAAGLGTVVSEWDYDYDYWGQGTQVTVSSGGGGSGGGGSASTKGPSVFPLAPSSKSTSGGTAALGCLVKDYFPEPVTVSWNSGALTSGVHTFPAVLQSSGLYSLSSVVTVPSSSLGTQTYICNVNHKPSNTKVDKKVEPKSCDKTHTKKKPLDGEYFTLQIRGRERFEMFRELNEALELKDAQAGKEPG
chain 2: QVQLQESGGGLVQAGGSLRLSCAASGRTFSEYAMGWFRQAPGKEREFVATISWSGGSTYYTDSVKGRFTISRDNAKNTVYLQMNSLKPDDTAVYYCAAAGLGTVVSEWDYDYDYWGQGTQVTVSSGGSGGSQVQLQESGGGLVQAGGSLRLSCAASGRTFSEYAMGWFRQAPGKEREFVATISWSGGSTYYTDSVKGRFTISRDNAKNTVYLQMNSLKPDDTAVYYCAAAGLGTVVSEWDYDYDYWGQGTQVTVSSGGGGSGGGGSKRTVAAPSVFIFPPSDEQLKSGTASVVCLLNNFYPREAKVQWKVDNALQSGNSQESVTEQDSKDSTYSLSSTLTLSKADYEKHKVYACEVTHQGLSSPVTKSFNRGEC
In the case of B9, the Kd came out at 179 nM.

B10: COVIC-332 (antibody, V domains shown)
VH: QVQLVQSGAEVKKPGSSLKVSCKASGGTFNNFAISWVRQAPGQGPEWMGRINPILSAAKYAQKFQGRLTITADKSTTTAYMELSSLRSEDTAVYYCAPTGTGESWWFDPWGQGTLVTVSS
VL: QSVLTQPPSASGTPGQRVTISCSGSSSNIGTNYVYWYQQLPGTAPKVLIYGNNQRPSGVPDRFSGSKSGSSASLAISGLRSEDEADYYCAAWDDSLSGPVFGGGTKLTVL
B10 had a Kd of 0.111 nM.

B11: COVIC-362 (antibody, V domains shown)
VH: EVQLVESGGGLVQPGGSLRLSCKASGISVAPHAVTWVRQAPGKGLEWIGVIASNADTYYASWAKGRFTISRDNSKNTLYLQMNSLRAEDTAVYYCARHPGSAGYGYTYYYAMDPWGQGTLVTVSS
VL: DIQMTQSPSSLSASVGDRVTITCQASERVFYGIDWYQQKPGKAPKLLIYGASALWHGVPSRFSGSGSGTDYTLTISSLQPEDFATYYCQQGYMVPIGFGGGTKVEIK
Molecule B11 had a Kd of 0.00985 nM.

B12: COVIC-78 (antibody, V domains shown)
VH: QVQLVQSGAEVKKPGSSVKVSCKASGGTFSTSTFNWVRQAPGQGLEWMGGIIPIFGTVNYAQKFQGRVTITADESTGTAYMELSSLRSEDTAVYYCATLGQWDLLPRWGQGTLVTVSS
VL: KIVLTQSPDTLSLSPGERATLSCRASQSVDSNYLAWYQQKPGQAPRLLIYGASSRATGIPDRFSGSGSGTDFTLTISRLEPEDFAVYYCQQYGSSYTFGQGTKLEIK
As to B12, the equilibrium dissociation constant (Kd) came out at 393 nM.

B13: COVIC-299 (antibody, V domains shown)
VH: EVQLVESGGGLVQPGGSLRLSCAASGLIVSRNYMSWVRQAPGKGLEWVSVIYSGGSTFYADSVKGRFTISRDNSKNTLYLQMNSLRAEDTAVYYCARDLNIAGGFDIWGQGTMVTVSS
VL: DIQLTQSPSFLSASVGDRVTITCRASQGISSYLAWYQQKPGKAPKLLIYAASTLQSGVPSRFSGSGSGTDFTLTISSLQPEDFATYYCQHLNIDPITFGQGTRLEIK
In turn, B13 gave a dissociation constant Kd of 0.332 nM.

B14: COVIC-42 (antibody, V domains shown)
VH: B13 VH with V12I, L27V, R31S, F58Y, N100D, I101V, A102S, F105M, I107V, M113T
VL: not shown
Molecule B14 had a Kd of 11 nM.

Source of the values: article PMC12014896 (2025).
